These results are taken from the DeepSol protein solubility set.

This series can be described thus: soluble on expression in E. coli; label from the status in PepcDB or PDB records.
“MDLSIFKNARAKPVPRPAPAGAASGLHDPLAPTIFHEAWWLDASAPDGWSETLVRADNRIVGRLPYMILRKPFGQTSCEMPKFAHFLGPAVAPGPGARANRALKEAQIVRELHEQLPPTGNLYMRMHRGVTDTMVHAEAGLHMLVNFTFEIAPGCEQAIWAGMRDKTRNIIRRAQEKHCVSDTLDPRDFAACYRRNVDEAGHESYYETDEIVRVCTAALERGRGRILSATGPDGGLAAAIFTIWDATSCYYLLATRSRGEDHGATSLLLWEAIRHANRMGLIFDFDGLYTRGNRVFFTGFGGTVHPRYVVCGSTRTYRATAALSKALSRLRRP”: the “soluble on expression in E. coli” value is “not soluble”. Take “MVKKSEFERGDIVLVGFDPASGHEQQGAGRPALVLSVQAFNQLGMTLVAPITQGGNFARYAGFSVPLHCEEGDVHGVVLVNQVRMMDLHARLAKRIGLAADEVVEEALLRLQAVVE”: the “soluble on expression in E. coli” value is “soluble”. As to “MSGDENPASKPTPVQDVQGDGRWMSLHHRFVADSKDKEPEVVFIGDSLVQLMHQCEIWRELFSPLHALNFGIGGDSTQHVLWRLENGELEHIRPKIVVVWVGTNNHGHTAEQVTGGIKAIVQLVNERQPQARVVVLGLLPRGQHPNPLREKNRRVNELVRAALAGHPRAHFLDADPGFVHSDGTISHHDMYDYLHLSRLGYTPVCRALHSLLLRLLTQDQGQGGAPLPEPSP”, the “soluble on expression in E. coli” value is listed as “soluble”.

As to “THCHLKNGEYHIDLIPQRLRGEIASFDIHVPETGELIVEQGRRITARHIKQMEKSQMQDLVVPRDYLIGKTLAKNIIDTSTGEFLAQANDEITEELLDAMANHG”, the “soluble on expression in E. coli” value was “not soluble”. On to “MSLRCLVTGATGYVGGRLVPELLDAGHRVRCLARSPDRLRDHPWAGKAEVVRGDVTDADSVARAMEGVDVAYYLVHALGSGDDFEATDRRAARTFAERAAAAGVRRIVYLGGLTPAGVPEGELSPHLRSRTEVGRILLASGVPTTVLRAAVVIGSGSASFEMLRYLTERLPVMVTPSWVHTRIQPVAVRDVLRALVGSATMPREVSRTFDVGGPDILTYREMMERYARVAELPRRLILPVPMLSPGLSSHWVGLVTPVPAAIARPLTESLRHEVVCGENDIVRYVPPPPGYPLGFDDALRLALQRVREARVTTRWSSASVPGAPSDPLPTDPDWAGGSLYTDDRALGVDAPPDALWRVVEGIGGDHGWYSFPLAWAVRGWLDRLVGGVGLRRGRRDAARLRVGDSLDFWRVEEIVPGRLLRLRAEMRLPGLAWLEMYAETDDAGRTRYRQRALFHPHGLAGHAYWWSVSPFHAVVFGGMARNIARAAARAAEGHHHHHH”, for which the “soluble on expression in E. coli” value is recorded as “not soluble”. In the case of “MSLLTQIKGEWVLGFADGNHRMLRDASVVYEGERIVHVGTEFDGVADRVIDARGCLVAPGFIDTHVHSGHRALHKLLADGGRPDLFGQPYMDVTIARDGTRIKGYPNYLSREEAAVDPGIALHAAFTVAELLRNGVTTFVELGGHVMVQEALWRECERLGVRGYLGAGYDSGRWAADDQGRLRRVPYPDGGDHLFEEAVAFIKRVQAAGNDLVNGILVPREVENCSVDILRRTVQAAQELGVPMATHAGYNVIEFYETVREHRMTPIELLHSVGMLGPRLNIGHANLISDSPRLNYSGGRDLALMGEHRVSISHCPINIVRRARVLDSWKKYREAGVNLTIGSDTYPRDMVMNMRTASYHGKVMSHDLTAASAAEVFEAATLGGARSLGRTDIGRLEPGARADVIAINVGRQDVLRYGPIWDPIRSLVECGVGDDVELVVTNGQVRMEQGRIVGVDLGALRAEAQQFADNVWRDLQDWDPLRRTAQAMCPPLFCPDCMEGHHHHHH” it was “soluble”; in that of “MSLGRLEKRFSFAFCSYWRPFRRPLRTHHGLWSVREGILIRLTDRETGCQGYGEIAPIPWFGSETLEQALAFCRQLPPLLSEAYILGIPEALPACRFGLEGAWLACRDPDWLNKDLSLLSFCELLGETLPPESYKDSYKDSVPLTRSVYKLKVGRDPMQQELEKLEQWLERLPPGSRLRLDANGGLSLAEAHRWLMVCDRLNQDSPGKIEFLEQPLPPDQHSHLVELSRQYQTPIALDESVACLEQLQAVHRSGWTGILVVKPSLVGSCIALREYLSRHPGLDLVFSSALETAIGAWHGLAWAGSLQAKTASPRAVGWGVGEFFQEGDPLTLTQLSAQERAALMQAVWERYSREGHHHHHH”, “soluble”; in that of “MSSGFAVSARSLALMATLAFAAPALAQQYGGEVDPEIRIQQLEDRLRTLTGQNEELQHRNRRLEEQVRQLQSGAGAPGAQQPAPNQATTPPAAPQQPYSQPAQQPAYGQQQPGYGQPQAPMVQPQPAAPQGGGRRGDAFDPSRDPNAPGVPRALGGGQLPMEQSGGMPAGRAAGAPMDLSNGNGGYVQGGYPQGGAPSAAKQPPAATAGGALTTQPPSQTPRDEFDLGIGYMQRRDYALAEETMRNFAQKYPDNPLTADAQYWLGESFFQRQMYRDAAEAFLAVTSKHEKSGKAPDALLRLGQSLSALKEKEAACAALGEIGRKYPQASSSVKKAVDREQKKLKC”, “not soluble”. Under “MGSDKIHHHHHHDEINKDHNHTTAVPAKMILTDVMTSTAFSVVSGDFNLYGGMYVEHETGSHNQFYYAETRSSCTSASTFNNSWGGTYSTLKDALISVKVAEEEQNFITKGIAELFVAYNLAILTDMYGDTPWKEACDYTVSMTPAIDKQEEIYKDIMAYVDAAIEDLQKPDLTSLSNQDLIYKGDASAWLKTAYGLKARYTMRLMGRSADVKGDMEKVLDYISKSYTSAAEQCSYAMYGVGVNINPFFGVFYSRLGEVASRSMFDKLNERNDPRIRRCYVEANSQTMIASKDDPLLNLAHNGDLVQSQLEYTVSMFCAAQTAPTHILSYHEVLFLKAEALCRLNRKDEAKAVLKEAVVAGMANMEVNIKSALASDYWGGFLNVTNEVTPEEAASYFDENVVPLFDANPLKETMIQKYISFWNADGESTECYNDVRRLKSLGEDIYGLQNPGKFPLRCPYGNDDTTTNPNIQAAYGDGQYVFTENVWWAGGTR” stands “not soluble”; under “MGSDKIHHHHHHMTNIPFIYQYEEKENERAAAGYGTFGYLITRIEETLYDQYGVFYELYASDDPNTEYWELLVEDVRSGSLEPEHVAYIFEKLEKKTFAYDEDEKEPDYTVHKSIRNSVYAYPEKGVAFARIPYFQDGSIMSFDCLFAVNDEKMRAFLEGVRPRLWEKSKRKVTVFTDGDGGTSREQEAIVREVQRSQVIMNPLLKKEIYRSIDQFFHSDKSFYQTYDIPYKRGILLYGPPGNGKTTLVKSIAGSIDAPVAYWQITEFTSSETIEEVFQAARRLAPAVLVIEDIDSMPEDVRSFFLNTLDGATSKEGLFLIGTTNYPEEIDPGLMNRAGRFDRAYEIGLPDEELRLEYMKMRGFGIFLSEGEIKNAAKLTEGFSFAQLGELYVSSALQWHQEGNHHIETMVKDMTGEQRKSQRGSWMERNKVGFH”, “not soluble”. In the case of “MGSDKIHHHHHHMTINDLQAFVMVYDLRHISNAAVELHLSQSELSKRMRALENELNIKLLDTHNKRRLQITPAGETFYHHAHKMITDYETMMHDLAPNRPTTFAKLIIGAIPISGQYNIAKKIATFDTQHPDTEIKIIEDEGDQIVKRLLSGELQAAIIRDTQTTQLQPTEFQKQPLLADELKIILPRDHPLATQPVIRIQDLARQKIATLPPGSGVYEPINALFAQQGMTPQFFFESTHIETLLGILNQNNVTFLFKQSVLPFMTEHVVMRSLAIPFISQLNFVYPQRTGNQLLTDLIDYLTVTAQENQQV” it was “not soluble”; in that of “MMKKMAIACALLSSVVASSVWADAASSLKSRLDKVSSFHATFTQKVTDGSGAAVQEGQGDLWVKRPNLFNWHMTQPDESILVSDGKTLWFYNPFVEQATATWLKDATGNTPFMLIARNQASDWQQYNIKQDGDNFVLTPKASNGNLKQFTINVGRDGTIHQFSAVEQDDQRSAYQLKSQQNGAVDPSKFTFTPPQGVTIDDQRK”, “not soluble”. Regarding “MDEQEIQRLVEEVSLQYFGMPFLHKAMFNSRLRTTGGRYLLNTHNIELNYRYYEMYGKEELVGIVKHELCHYHLHITGRGYKHRDKDFRELLKAVDAPRFCKRMINEEKGKKVYMYECMECSLQYVRRRQINTKRYVCGKCKGKLILIKKTSLEHHHHHH”, the “soluble on expression in E. coli” value was “not soluble”. In the case of “MYEIKGHHHISMVTKNANENNHFYKNVLGLRRVKMTVNQDDPSMYHLFYGDKTGSPGTELSFFEIPLVGRTYRGTNAITRIGLLVPSEDSLHYWKERFEKFDVKHSEMTTYANRPALQFEDAEGLRLVLLVSNGEKVEHWETWEKSEVPAKHQIQGMGSVELTVRRLDKMASTLTEIFGYTEVSRNDQEAIFQSIKGEAFGEIVVKYLDGPTEKPGRGSIHHLAIRVKNDAELAYWEEQVKQRGFHSSGIIDRFYFKSLYFRESNGILFEIATDGPGFTVDGDVEHLGEKLDLPPFLEDQRAEIEANLAPIEEK” it was “soluble”.
